From patent US20110008345A1 (GlaxoSmithKline, published 2011) come the findings set out here.

Usually Kd stands for the equilibrium constant for the complex coming apart. Broadly, the koff is the first-order rate constant of dissociation. A word on the kon: it is a measure of how fast the partners come together. Broadly, the IC50 is the point on the concentration scale where inhibition reaches its midpoint.

Test [1] deals with T1, recombinant E. coli-expressed cynomolgus IL-4 (cynomolgus, UniProt P79339 25-153).
T1 sequence (looked up): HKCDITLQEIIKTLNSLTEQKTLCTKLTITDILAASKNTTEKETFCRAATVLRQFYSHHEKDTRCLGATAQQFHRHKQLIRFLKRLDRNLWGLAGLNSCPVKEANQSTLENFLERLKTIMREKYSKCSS
Nature of the test: cell-based or functional assay.

Test [2] concerns the target T2, recombinant E. coli-expressed human IL-4 (human, UniProt P05112 25-153).
T2 sequence: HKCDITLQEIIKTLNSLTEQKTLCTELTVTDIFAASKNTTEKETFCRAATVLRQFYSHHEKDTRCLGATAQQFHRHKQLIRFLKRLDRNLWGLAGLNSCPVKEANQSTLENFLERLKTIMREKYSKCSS
Briefly: cell-based or functional assay.

For test [3], the target named is T2, recombinant E. coli-expressed human IL-4. Nature of the test: SPR, purified. Background: SPR reads the build-up and loss of mass on a sensor chip optically.
Test [4] has as its target recombinant human TNF-alpha (human, UniProt P01375 77-233). Briefly: ELISA. (In general: ELISA stands for enzyme-linked immunosorbent assay.)
The target in a further test is T3, HEL (Hen Egg Lysozyme) (hen, UniProt P00698 19-147).
T3 construct: also called hen egg white lysozyme
Briefly: ELISA.

In a further test the target is T4, recombinant human IL-12 (human, UniProt P29459 23-219; P29460 23-328).
T4 sequence (looked up) 1: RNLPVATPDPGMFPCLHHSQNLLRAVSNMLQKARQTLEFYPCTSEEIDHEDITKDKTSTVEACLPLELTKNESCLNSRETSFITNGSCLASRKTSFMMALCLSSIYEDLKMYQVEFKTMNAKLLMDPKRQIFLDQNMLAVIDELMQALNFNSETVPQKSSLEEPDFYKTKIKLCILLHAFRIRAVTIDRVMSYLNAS
T4 sequence (looked up) 2: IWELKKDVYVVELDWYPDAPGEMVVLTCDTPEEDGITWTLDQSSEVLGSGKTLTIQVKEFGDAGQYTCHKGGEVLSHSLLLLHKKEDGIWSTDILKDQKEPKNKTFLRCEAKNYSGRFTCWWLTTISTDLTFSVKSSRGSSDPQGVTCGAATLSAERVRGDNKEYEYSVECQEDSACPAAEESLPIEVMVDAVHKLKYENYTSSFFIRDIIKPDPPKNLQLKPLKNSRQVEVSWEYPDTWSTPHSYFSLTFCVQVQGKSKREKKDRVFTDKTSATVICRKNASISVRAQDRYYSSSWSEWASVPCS
Nature of the test: ELISA.

Another test addresses T5, recombinant human VEGF (human, UniProt P15692-4 27-191).
T5 construct: also called VEGF165; hVEGF165
Briefly: ELISA.

In a further test the target is T6, RNAse A (UniProt P61823 27-150).
T6 sequence (looked up): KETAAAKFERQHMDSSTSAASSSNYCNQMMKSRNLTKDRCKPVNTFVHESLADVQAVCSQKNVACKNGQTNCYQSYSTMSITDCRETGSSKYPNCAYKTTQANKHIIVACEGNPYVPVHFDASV
Briefly: ELISA.

The target in test [5] is recombinant E. coli-expressed human IL-18 (human, UniProt Q14116 37-193). Nature of the test: ELISA.
The target in test [6] is T7, Recombinant Human HGF R (c-MET)/Fc Chimera (human, UniProt P08581 25-932).
T7 construct: bought; also called HGF receptor
Nature of the test: ELISA.

Test [7] has as its target recombinant Sf21-expressed human IL-5 (human, UniProt P05113 20-134). Briefly: ELISA.
Test [8] concerns the target T2, recombinant E. coli-expressed human IL-4. Briefly: SPR.
For test [9] the target is unchanged. Briefly: SPR, purified. The source holds these as a separate data set.
Test [10] shares this target. Briefly: SPR exp 3.
In test [11] the target is T8, recombinant E. coli-expressed human IL-13 (human, UniProt P35225 35-146).
T8 construct: made and purified at GSK; also called Interleukin-13; rhIL-13
Briefly: SPR.

The target in test [12] is T2, recombinant E. coli-expressed human IL-4. Nature of the test: SPR. This is another data set of the same source.
Test [13] has the same target. Nature of the test: SPR exp 2.
For test [14] the target is unchanged. Briefly: SPR exp 2. This is another data set of the same source.
The target is the same in test [15]. Nature of the test: SPR. This is another data set of the same source.
Test [16] has the same target. Nature of the test: ELISA, IL-4 binding to IL4Ralpha-Fc.
For test [17] the target is unchanged. Briefly: SPR stoichiometry.
The target is the same in test [18]. Briefly: SPR exp 2. The source holds these as a separate data set.
Test [19] has the same target. Nature of the test: SPR exp 1.
In test [20] the target is T9, recombinant E. coli-expressed cynomolgus IL-13 (cynomolgus, UniProt Q0PW92 21-132).
T9 construct: also called cyno IL-13
Briefly: SPR.

In test [21] the target is T1, recombinant E. coli-expressed …. Nature of the test: SPR.
For test [22], the target named is T2, recombinant E. coli-expressed human IL-4. Nature of the test: cell-based or functional assay. This is another data set of the same source.
Test [23] has the same target. Briefly: SPR. The source holds these as a separate data set.
Test [24] has the same target. Nature of the test: SPR exp 1. This is another data set of the same source.
For test [25] the target is unchanged. Nature of the test: SPR exp 1. The source holds these as a separate data set.
The target in test [26] is T10, recombinant human IGF-1R-his tag (human, UniProt P08069 31-932).
T10 construct: bought; also called rhIGF-1R
Nature of the test: ELISA.

Test [27] deals with T8, recombinant E. coli-expressed human …. Nature of the test: SPR exp 3.
The target is the same in test [28]. Briefly: SPR. This is another data set of the same source.

T3 sequence (P00698 19-147): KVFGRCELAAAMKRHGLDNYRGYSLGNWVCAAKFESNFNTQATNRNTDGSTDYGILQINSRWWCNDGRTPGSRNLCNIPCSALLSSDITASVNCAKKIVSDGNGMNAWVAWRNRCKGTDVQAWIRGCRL
T7 sequence (P08581 25-932 limits assumed, change not shown): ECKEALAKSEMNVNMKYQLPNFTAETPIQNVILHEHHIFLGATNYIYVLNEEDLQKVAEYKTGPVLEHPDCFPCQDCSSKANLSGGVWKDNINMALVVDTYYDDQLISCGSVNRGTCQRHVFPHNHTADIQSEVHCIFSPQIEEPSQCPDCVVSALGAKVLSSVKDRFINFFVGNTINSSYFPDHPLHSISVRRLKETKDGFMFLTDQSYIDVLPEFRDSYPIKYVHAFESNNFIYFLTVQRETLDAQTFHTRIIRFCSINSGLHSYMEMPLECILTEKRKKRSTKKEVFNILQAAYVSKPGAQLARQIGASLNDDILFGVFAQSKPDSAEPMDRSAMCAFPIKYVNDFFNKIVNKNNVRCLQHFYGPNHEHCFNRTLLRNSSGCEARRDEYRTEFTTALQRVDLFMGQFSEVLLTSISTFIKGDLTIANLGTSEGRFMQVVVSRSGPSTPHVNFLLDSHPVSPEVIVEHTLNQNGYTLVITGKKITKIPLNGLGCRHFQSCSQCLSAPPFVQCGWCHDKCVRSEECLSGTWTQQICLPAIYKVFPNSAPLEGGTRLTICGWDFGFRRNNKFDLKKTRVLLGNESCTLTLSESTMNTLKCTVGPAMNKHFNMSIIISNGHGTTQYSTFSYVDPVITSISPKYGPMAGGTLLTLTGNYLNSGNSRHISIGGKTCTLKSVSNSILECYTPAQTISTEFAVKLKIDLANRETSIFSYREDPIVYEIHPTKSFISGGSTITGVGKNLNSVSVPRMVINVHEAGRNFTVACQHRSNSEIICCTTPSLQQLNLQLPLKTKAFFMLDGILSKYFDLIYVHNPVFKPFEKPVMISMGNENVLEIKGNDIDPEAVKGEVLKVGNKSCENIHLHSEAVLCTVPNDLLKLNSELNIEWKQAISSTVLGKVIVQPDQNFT

B1: Pascolizumab (Anti-human IL-4 monoclonal antibody) (antibody, human IgG1, kappa, V domains shown)
VH: QVTLRESGPALVKPTQTLTLTCTFSGFSLSTSGMGVSWIRQPPGKGLEWLAHIYWDDDKRYNPSLKSRLTISKDTSRNQVVLTMTNMDPVDTATYYCARRETVFYWYFDVWGRGTLVTVSS
VL: DIVLTQSPSSLSASVGDRVTITCKASQSVDYDGDSYMNWYQQKPGKAPKLLIYAASNLESGIPSRFSGSGSGTDFTFTISSLQPEDIATYYCQQSNEDPPTFGQGTKVEIKR
notes: also called anti-human IL4 mAb; IL-4 mAb
In the case of B1, the “Mean ND50 (TF-1)” value in [1] turned out to be 2.62 nM; in test [2] it was 1.36 nM. Further, the Kd in test [3] was 0.037 nM; in [8], 0.06 nM; in test [9], 0.03 nM; in test [10] it was 0.013 nM; in [12], 0.02 nM; in test [13], 0.011 nM. The equilibrium dissociation constant (Kd) in test [14] came out at 0.011 nM; in [15], 5.72 pM; in test [18], 0.06 nM; in test [19], 0.03 nM; in [21], 0.046 nM; in [23], 0.037 nM. Besides, the dissociation constant (Kd) in [24] and in test [25] was 0.0137 nM throughout. The binding result is listed as “no binding (tested: 1 ug/ml)” in [4]; “no binding” in the test with HEL (Hen Egg Lysozyme); “no binding” with recombinant human IL-12; “no binding” in the test with recombinant human VEGF; “no binding (tested: 2 ug/mL)” in the test with RNAse A; “no binding” in test [5]. For the same molecule, the binding result in [6], in test [7], in [11] and in test [20] was “no binding” each time. Besides, the off-rate constant (koff) in [8] was 0.000123 s⁻¹; in [15] it was 2.43e-05 s⁻¹; in test [18], 0.000123 s⁻¹; in test [19] it was 0.00016 s⁻¹; in test [21] it was 0.000108 s⁻¹. Besides, the kon is 2.04e+06 M⁻¹ s⁻¹ in test [8]; 4.25e+06 M⁻¹ s⁻¹ in test [15]; 2.04e+06 M⁻¹ s⁻¹ in [18]; 5.3e+06 M⁻¹ s⁻¹ in test [19]; 2.34e+06 M⁻¹ s⁻¹ in test [21]. Moreover, in test [16], the concentration for half-maximal inhibition (IC50) worked out at 3.45 nM. For the same molecule, in test [17], the Stoichiometry came out at 1.8. In addition, in test [22], the “Mean IC50 (whole blood phospho-STAT6)” value was 2.44 nM.

B2: 586H-210 GS removed (bispecific antibody, human IgG1, kappa)
heavy: not shown
light: DIVMTQSPLSLPVTPGEPASISCRSSQNIVHINGNTYLEWYLQKPGQSPRLLIYKISDRFSGVPDRFSGSGSGTDFTLKISRVEADDVGIYYCFQGSHVPWTFGQGTKLEIKRTVAAPSVFIFPPSDEQLKSGTASVVCLLNNFYPREAKVQWKVDNALQSGNSQESVTEQDSKDSTYSLSSTLTLSKADYEKHKVYACEVTHQGLSSPVTKSFNRGEC
notes: also called BPC1601
In the case of B2, the binding result in test [26] is on record as “no binding”; with recombinant human VEGF, “no binding”; in test [21] it was “binds”. Moreover, the dissociation constant Kd in [27] came to 0.438 nM; in test [28], 0.44 nM; in test [20], 0.044 nM. Besides, the IC50 in test [16] was 36.2 nM. The koff in test [20] is 2.24e-05 s⁻¹. For the same molecule, in [20], the on-rate constant (kon) came out at 507000 M⁻¹ s⁻¹.
